From paper PMC2562756

How the values were obtained:
[1] = molecular target: T1, DNA topoisomerase 1 (TOP1) (human, UniProt P11387 1-765); assay: competition
[2] = molecular target: T1, DNA topoisomerase 1 (TOP1); assay: competition; remark: listed apart in the source
[3] = molecular target: T1, DNA topoisomerase 1 (TOP1); assay: EMSA

T1 sequence (P11387 whole entry): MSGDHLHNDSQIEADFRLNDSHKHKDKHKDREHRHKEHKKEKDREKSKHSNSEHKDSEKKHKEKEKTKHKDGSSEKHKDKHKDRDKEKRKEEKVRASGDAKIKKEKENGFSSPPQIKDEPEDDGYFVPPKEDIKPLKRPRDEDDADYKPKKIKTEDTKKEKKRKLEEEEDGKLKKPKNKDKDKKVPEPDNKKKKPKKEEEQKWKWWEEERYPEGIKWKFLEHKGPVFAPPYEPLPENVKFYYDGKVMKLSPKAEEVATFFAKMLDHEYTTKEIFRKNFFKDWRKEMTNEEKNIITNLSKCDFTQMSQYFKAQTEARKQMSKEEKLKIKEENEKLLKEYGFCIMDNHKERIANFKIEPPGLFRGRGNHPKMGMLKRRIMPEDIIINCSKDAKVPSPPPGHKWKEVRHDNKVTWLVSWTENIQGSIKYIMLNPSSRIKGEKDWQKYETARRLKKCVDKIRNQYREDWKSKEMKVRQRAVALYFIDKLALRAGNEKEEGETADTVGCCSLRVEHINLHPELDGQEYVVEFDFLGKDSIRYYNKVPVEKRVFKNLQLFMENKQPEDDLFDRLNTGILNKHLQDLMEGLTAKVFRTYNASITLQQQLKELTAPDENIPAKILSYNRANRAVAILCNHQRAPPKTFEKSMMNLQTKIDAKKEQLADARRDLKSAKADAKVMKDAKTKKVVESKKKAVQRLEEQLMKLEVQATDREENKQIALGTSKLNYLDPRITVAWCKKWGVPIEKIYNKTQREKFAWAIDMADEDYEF

B1: 42-bp NF-kappaB binding sequence competitor (NF-kappaB-BS) (dsDNA)
DNA 1: GATCCAAGGGGACTTTCCATGGATCCAAGGGGACTTTCCATG
DNA 2: CATGGAAAGTCCCCTTGGATCCATGGAAAGTCCCCTTGGATC
binding result [1]: no binding

B2: 22-bp TOP1 binding sequence competitor (TOP1-BS) (dsDNA)
DNA 1: AAAAAGACTTGGAAAAATTTTT
DNA 2: AAAAATTTTTCCAAGTCTTTTT
binding result [2]: binds

B3: 52-bp TOP1 substrate (dsDNA)
DNA 1: TCTAGAGGATTTCGAAGACTTAGAGAAATTTCGAAGATCCCCGGGCGAGCTC
DNA 2: GAGCTCGCCCGGGGATCTTCGAAATTTCTCTAAGTCTTCGAAATCCTCTAGA
binding result [3]: binds
